PMC4836315

Experiments:
[1] = biological target: PRRSV nsp11 mutant S74A made on the K173A template; assay: sedimentation velocity analytical ultracentrifugation (AUC)
[2] = biological target: PRRSV nsp11 mutant R153A made on the K173A template; assay: as above
[3] = biological target: PRRSV nsp11 mutant F76A made on the K173A template; assay: as above
[4] = biological target: PRRSV nsp11 mutant G138A (PRRSV strain WUH3); assay: SEC; data not shown; Superdex 75 10/300 GL under the same buffer conditions (20 mM Tris-HCl pH 7.4, 200 mM NaCl), 1 mg protein
[5] = biological target: PRRSV nsp11 mutant L54A (PRRSV strain WUH3); assay: as above
[6] = biological target: PRRSV nsp11 mutant F76A, pET-30a (+) construct (PRRSV strain WUH3)
[7] = biological target: PRRSV nsp11 mutant S166A (PRRSV strain WUH3); assay: SEC; data not shown; Superdex 75 10/300 GL under the same buffer conditions (20 mM Tris-HCl pH 7.4, 200 mM NaCl), 1 mg protein
[8] = biological target: PRRSV nsp11 mutant V165A (PRRSV strain WUH3); assay: as above
[9] = biological target: PRRSV nsp11 mutant Y69A (PRRSV strain WUH3); assay: as above
[10] = biological target: PRRSV nsp11 mutant S74A, pET-30a (+) construct (PRRSV strain WUH3)
[11] = biological target: PRRSV nsp11 mutant G1A (PRRSV strain WUH3); assay: SEC; data not shown; Superdex 75 10/300 GL under the same buffer conditions (20 mM Tris-HCl pH 7.4, 200 mM NaCl), 1 mg protein
[12] = biological target: PRRSV nsp11 mutant G137A (PRRSV strain WUH3); assay: as above
[13] = biological target: PRRSV nsp11 mutant R55A (PRRSV strain WUH3); assay: as above
[14] = biological target: PRRSV nsp11 mutant K173A, pET-42b (+) construct with C-terminal His6 tag (PRRSV strain WUH3); assay: AUC; sedimentation velocity, 45,000 rpm, 18°C, 280 nm, c(s) distribution with Sedfit
[15] = biological target: PRRSV nsp11 mutant K173A, pET-42b (+) construct with C-terminal His6 tag (PRRSV strain WUH3); assay: SEC; Superdex 75 10/300 GL, 20 mM Tris-HCl pH 7.4, 200 mM NaCl, 0.6 ml/min, 4°C, 1 mg protein; masses from a calibration curve; fractions checked by SDS-PAGE
[16] = parent: 4.396 (dimer species, 86.67%), 2.614 (monomer species, 14.04%)
[17] = parent: 63.7 (dimer species, 86.67%), 29.2 (monomer species, 14.04%)

PRRSV nsp11 mutant K173A, pET-42b (+) construct with C-terminal His6 tag S74A
other: sedimentation coefficient S20,W [1, 16]: 3.32 S
other: calculated molecular weight (MW) from AUC [1, 17]: 50.2

PRRSV nsp11 mutant K173A, pET-42b (+) construct with C-terminal His6 tag R153A
other: sedimentation coefficient S20,W [2, 16]: 3.4 S
other: calculated molecular weight (MW) from AUC [2, 17]: 40.7

PRRSV nsp11 mutant K173A, pET-42b (+) construct with C-terminal His6 tag F76A
other: sedimentation coefficient S20,W [3, 16]: 3.07 S
other: calculated molecular weight (MW) from AUC [3, 17]: 37.8

PRRSV nsp11 mutant G138A (enzyme)
stoichiometry N [4]: 2

PRRSV nsp11 mutant L54A (enzyme)
stoichiometry N [5]: 2

PRRSV nsp11 mutant F76A, pET-30a (+) construct (enzyme)
endoribonuclease activity (FRET assay, 2 μM enzyme, 1 μM fluorescent RNA substrate, 25°C), against wild-type nsp11 (fold less than wild type) [6]: > 4

PRRSV nsp11 mutant S166A (enzyme)
stoichiometry N [7]: 2

PRRSV nsp11 mutant V165A (enzyme)
stoichiometry N [8]: 2

PRRSV nsp11 mutant Y69A (enzyme)
stoichiometry N [9]: 2

PRRSV nsp11 mutant S74A, pET-30a (+) construct (enzyme)
endoribonuclease activity (FRET assay, 2 μM enzyme, 1 μM fluorescent RNA substrate, 25°C), against wild-type nsp11 (fold less than wild type) [10]: > 4

PRRSV nsp11 mutant G1A (enzyme)
stoichiometry N [11]: 2

PRRSV nsp11 mutant G137A (enzyme)
stoichiometry N [12]: 2

PRRSV nsp11 mutant R55A (enzyme)
stoichiometry N [13]: 2

PRRSV nsp11 mutant K173A, pET-42b (+) construct with C-terminal His6 tag (enzyme)
percent dimer [14]: 86.7%
percent monomer [14]: 14%
stoichiometry N [15]: 2
